B1: emilin-1: emilin family extracellular matrix protein carrying an EMI domain, GenBank NP—008977; expressed from pCS2 vector by transfection (protein)
chain: ASYPPRGFSLYTGSSGALSPGGPQAQIAPRPASRHRNWCAYVVTRTVSCVLEDGVETYVKYQPCAWGQPQCPQSIMYRRFLRPRYRVAYKTVTDMEWRCCQGYGGDDCAESPAPALGPASSTPRPLARPARPNLSGSSAGSPLSGLGGEGPGESEKVQQLEEQVQSLTKELQGLRGVLQGLSGRLAEDVQRAVETAFNGRQQPADAAARPGVHETLNEIQHQLQLLDTRVSTHDQELGHLNNHHGGSSSSGGSRAPAPASAPPGPSEELLRQLEQRLQESCSVCLAGLDGFRRQQQEDRERLRAMEKLLASVEERQRHLAGLAVGRRPPQECCSPELGRRLAELERRLDVVAGSVTVLSGRRGTELGGAAGQGGHPPGYTSLASRLSRLEDRFNSTLGPSEEQEESWPGAPGGLSHWLPAARGRLEQLGGLLANVSGELGGRLDLLEEQVAGAMQACGQLCSGAPGEQDSQVSEILSALERRVLDSEGQLRLVGSGLHTVEAAGEARQATLEGLQEVVGRLQDRVDAQDETAAEFTLRLNLTAARLGQLEGLLQAHGDEGCGACGGVQEELGRLRDGVERCSCPLLPPRGPGAGPGVGGPSRGPLDGFSVFGGSSGSALQALQGELSEVILSFSSLNDSLNELQTTVEGQGADLADLGATKDRIISEINRLQQEATEHATESEERFRGLEEGQAQAGQCPSLEGRLGRLEGVCERLDTVAGGLQGLREGLSRHVAGLWAGLRETNTTSQMQAALLEKLVGGQAGLGRRLGALNSSLQLLEDRLHQLSLKDLTGPAGEAGPPGPPGLQGPPGPAGPPGSPGKDGQEGPIGPPGPQGEQGVEGAPAAPVPQVAFSAALSLPRSEPGTVPFDRVLLNDGGYYDPETGVFTAPLAGRYLLSAVLTGHRHEKVEAVLSRSNQGVARVDSGGYEPEGLENKPVAESQPSPGTLGVFSLILPLQAGDTVCVDLVMGQLAHSEEPLTIFSGALLYGDPELEHA

What was measured:
[1] = target: T1, pro TGF-β1 processing (Homo sapiens, UniProt P01137); assay: Western blot of pro TGF-β1 conversion to LAP and mature TGF-β1 in transfected HEK293T cells; type: cell-based; conditions: for Intensity of the band corresponding to mature TGF-β1 / Precursor (pro TGF-β) band: HEK293T supernatant, anti-TGF-β1 Western-blot, emilin-1 cotransfected, peptide at 100 μM; for Intensity of the band corresponding to mature TGF-β1: FIG. 5A; for Precursor (pro TGF-β) band: FIG. 5A lanes 2 and 3
T1 construct: Flag; expressed in transfected cells; host or cells: HEK293T (A6); mouse embryo fibroblasts (A8)
T1 sequence (P01137 30-390): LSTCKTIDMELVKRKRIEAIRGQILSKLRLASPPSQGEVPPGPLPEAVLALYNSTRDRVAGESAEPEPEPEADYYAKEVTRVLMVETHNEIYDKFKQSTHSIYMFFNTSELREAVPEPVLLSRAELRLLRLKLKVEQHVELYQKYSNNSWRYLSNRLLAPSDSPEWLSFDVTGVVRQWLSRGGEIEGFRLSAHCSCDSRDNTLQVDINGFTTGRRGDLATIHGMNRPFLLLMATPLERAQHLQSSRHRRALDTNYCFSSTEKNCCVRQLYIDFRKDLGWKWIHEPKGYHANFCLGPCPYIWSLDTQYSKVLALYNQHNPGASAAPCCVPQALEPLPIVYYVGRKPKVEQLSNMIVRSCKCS
Source text: (§1) • The construct for emilin 1 expression was engineered in pCS2 vector (Rupp R. A. et al., 1994, Genes Dev 8, 1311-1323) (for a physical map of the vector, see the site faculty.washington.edu/rtmoon/pcs2+.html) as described (Zanetti M. et al., 2004, Mol Cell Biol 24, 638-650); the vector used for proTGF-β expression in MEF and HEK293T cells is pCDNA3.1 (Invitrogen). Vectors containing the coding sequence for human pro TGF-β are described in Young and Murphy-Ullrich, 2004 (Young and Murphy-Ullrich, 2004, J Biol Chem 279, 38032-38039). The human pro TGF-β cDNA sequence is reported in the data bank (NP_000660; protein 000651). • The vector for Furin/SPC 1 expression is pCDNA3.1 (Invitrogen) • p15 and CAGA 12 promoter fragments are described in Jonk L. J. et al., 1998, J Biol Chem 273, 21145-21152 […]. • Constructs containing Flag sequences are described in Young G. D and Murphy-Ullrich J E, 2004, J Biol Chem 279, 38032-38039. • Constructs containing the Flag epitope (e.g. Flag-EMI-domain-GPI) were prepared as described in Chubet R G et al. Biotechniques 1996; 20(1):136-141 and detected by anti-Flag antibody (Kodak Inc.). • Constructs containing the GPI anchor were prepared as described in the Manual “Current Protocols in Cell Biology” Howard R. Petty Wayne State University, Detroit, Mich.; Juan S. Bonifacino, Mary Dasso, Joe B. Harford, Jennifer Lippincott-Schwartz, and Kenneth M. Yamada (eds.), Copyright C 2003 John Wiley & Sons, Inc. (GPI-anchor). In the construct Flag-EMI domain-GPI, the Flag sequence was inserted at the N-terminus after the signal peptide, while the GPI-anchor sequence was placed at the COOH-terminal end. • The construct emilin 1-KDEL was obtained by inserting the KDEL coding sequence described by Munro S., and Pelham, H. R., 1987, Cell 48, 899-907 upstream the emilin 1 STOP codon. • The construct containing the type II TGF-β receptor with HA epitope was described in Wrana J. L. et al., 1994, Nature 370, 341-347. • supplier of the drugs used: SP600125 (Calbiochem), SB431542 (Tocris). • Purified recombinant LAP and TGF-β1 proteins were purchased from (R&D Systems)
To verify whether emilin or its EMI domain inhibit TGF-β or its precursor, HEK293T cells were cotransfected with plasmids driving the expression of pro TGF-β1 (fused to the FLAG-domain, even though the antibody used were directed at LAP and TGF-β proteins) and emilin-1 (or EMI-domain). […] The anti-Flag antibody used was obtained from Kodak Inc; for the preparation of Flag constructs, see Younjg and Murphy-Ullrich (Young and Murphy-Ullrich, 2004).
As reported in the summary scheme above FIG. 5A, HEK293T cells were transfected with the plasmid encoding pro TGF-β1 (lane 1) and cotransfected with emilin-1 (lane 3) or treated with decanoyl-RVKR-CMK peptide (Decanoyl-Arg-Val-Lys-Arg-chloromethylketone, Alexis Corporation, Lausen, Switzerland) (lane 2) at a concentration of 100 μM. The peptide is an irreversible and competitive inhibitor of furin proprotein convertase and of other SPC family members (Proprotein Convertase); in addition, it inhibits pro-MMP2 dependent furin activation. The supernatant was then loaded on SDS-PAGE and detected by Western-blot with anti-TGF-β1 antibody. […] An increase of the precursor band in lanes 2 and 3 is […] to the decrease of TGF-β. Therefore it can be concluded that this assay detects an effect of emilin-1 on TGF-β1 processing that is similar to the effect of Furin inhibitors.

[2] = system: pro TGF-β1; assay: Western blot of culture medium of MEF (-/- or +/+) transfected with Flag-proTGF-β1; type: cell-based, mouse; conditions: anti-Flag / anti-LAP, FIG. 5C
Experimental: In a subsequent experiment, Mouse Embryo Fibroblasts (MEF) derived from ko (−/−) or wild type (+/+) mice were transfected with a plasmid encoding Flag-proTGF-β1; the Furin inhibitor decanoyl-RVKR-CMK was added to the indicated samples. The culture medium was then subjected to western blotting with anti-Flag (FIG. 5C, upper inset) or anti-LAP (middle inset) antibody. […] To control the expression levels, western blot (in the lower inset) with an anti-β gal antibody was developed instead.

[3] = system: mature TGF-β1; assay: CAGA12-lux luciferase reporter in HEK293T cells treated with recombinant TGF-β1; type: cell-based; conditions: 5 ng/ml recombinant TGF-β1, expression vector 500 ng, FIG. 2B
Experimental: (§2) To verify how emilin or the EMI domain can contrast TGF-β1 activity independently from receptor binding, HEK293T cells were transfected with a construct coding luciferase placed under control of a TGF-β activated promoter: CAGA12-lux (Jonk et al., 1998) alone or in combination with a emilin1 expression vector (500 ng) as shown in FIG. 2B. After transfection, cells were treated (black bar) or not treated (white bar) with 5 ng/ml recombinant TGF-1 (lanes 1 and 2). Column bars from 3 to 6 report luciferase expression values in experiments with cells co-transfected with the expression vector for emilin1 (or EMI-domain or emilin1ΔEMI) alone (white bars) or in combination with the vector encoding pro TGF-β1 (black bars). Values show the mean±st. dev.

[4] = system: pro TGF-β1; assay: CAGA12-lux luciferase reporter in HEK293T cells co-transfected with pro TGF-β1 vector; type: cell-based, human
Source text: as §1, §2
As further validation of the above observations, HEK293T cells were cotransfected with expression plasmids carrying the cDNAs shown in the summary scheme above the figure, along with CAGA12-lux and CMV-lacZ constructs, and luciferase expression levels were measured.

[5] = target: T2, pro TGF-β (Homo sapiens, UniProt P01137); assay: Co-immunoprecipitation / Western blot of EMI domain or emilin1 with pro TGF-β in HEK293T cells; type: binding; conditions: HEK293T cell extracts or culture medium; anti-Flag / anti-LAP IP; FIG. 4A-4C
T2 construct: expressed in transfected cells; host or cells: HEK293T
T2 sequence (P01137 30-390): as above
Source text: • The construct for emilin 1 expression was engineered in pCS2 vector (Rupp R. A. et al., 1994, Genes Dev 8, 1311-1323) (for a physical map of the vector, see the site faculty.washington.edu/rtmoon/pcs2+.html) as described (Zanetti M. et al., 2004, Mol Cell Biol 24, 638-650); the vector used for proTGF-β expression in MEF and HEK293T cells is pCDNA3.1 (Invitrogen). Vectors containing the coding sequence for human pro TGF-β are described in Young and Murphy-Ullrich, 2004 (Young and Murphy-Ullrich, 2004, J Biol Chem 279, 38032-38039). […]

[6] = system: pro TGF-β processing; assay: Cell-mixing experiment, responder (CAGA12-lux) and stimulator (proTGF-β) HEK293T cells; type: cell-based; conditions: emilin 1 cotransfected in S cells or only in R cells; FIG. 6A
Experimental: To determine where emilin and pro TGF-β interact (whether intracellularly or extracellularly), two types of HEK293T cells, responder (R) and stimulator (S), were prepared by transfecting the CAGA12-lux plasmid in the former and of the proTGF-β coding plasmid in the latter cells. Therefore, R cells respond to TGF-β by activating the luciferase reporter gene, while S cells produce TGF-β and can stimulate the former cells only if TGF-β is secreted. To determine where emilin-1 blocks TGF-β processing, R or S cells were cotransfected with the emilin 1 coding plasmid, and this transfection is indicated with the initial +E under the corresponding column bar in FIG. 6A.
To be able to compare the results obtained under the various conditions, all cells were cotransfected also with the CMV-lacZ vector. Mock refers to cells transfected with CMV-lacZ plasmid alone. […] Therefore, the inhibition of pro TGF-β processing by emilin 1 occurs in the extracellular compartment.

| Molecule | Intensity of the band corresponding to mature TGF-β1 [1] | Precursor (pro TGF-β) band [1] | pro TGF-β1 levels in culture medium [2] | Effect on luciferase expression induced by mature TGF-β [3] | Luciferase expression stimulated by transfected pro TGF-β ([4]; CAGA12-lux and CMV-lacZ, FIG. 6C) | Effect on luciferase expression induced by pro TGF-β1 ([4]; CAGA12-lux, co-transfection with pro TGF-β1 vector, FIG. 2B, 2C) | Interaction with pro TGF-β (co-immunoprecipitation) [5] | Conversion of pro TGF-β1 to LAP and mature TGF-β1 (band intensity) ([1]; HEK293T cotransfected, cell extracts anti-LAP, supernatants anti-TGF-β1, FIG. 4D) | Activation of CAGA12-lux reporter on mixing R and S cells [6] |
| --- | --- | --- | --- | --- | --- | --- | --- | --- | --- |
| Decanoyl-Arg-Val-Lys-Arg-chloromethylketone [decanoyl-RVKR-CMK, reference compound] | decreases | increase | results in increased pro TGF-β1 levels |  |  |  |  |  |  |
| B1 | decreases | increase |  | does not antagonize mature TGF-β | inhibits the stimulating action of transfected pro TGF-β | inhibits pro TGF-β | co-precipitates | inhibit the conversion of pro TGF-β1 | inhibits activation of the reporter construct |

Source: patent US20090036382A1, “TGF-Beta Modulators and Use Thereof” (Universita' Degli Studi Di Padova, priority 2006, published 2009)
